Common to all, as to assay: FACS, transfected HeLa cells
On the technique in general: Flow cytometry measures light scatter and fluorescence of single cells or particles in a stream.

Experiment [1] has as its target T1, human CEACAM8, full-length, on transfected HeLa cells (human, UniProt P31997 35-320).
T1 construct: also called TPP-4190; HeLa human CEACAM8
T1 sequence: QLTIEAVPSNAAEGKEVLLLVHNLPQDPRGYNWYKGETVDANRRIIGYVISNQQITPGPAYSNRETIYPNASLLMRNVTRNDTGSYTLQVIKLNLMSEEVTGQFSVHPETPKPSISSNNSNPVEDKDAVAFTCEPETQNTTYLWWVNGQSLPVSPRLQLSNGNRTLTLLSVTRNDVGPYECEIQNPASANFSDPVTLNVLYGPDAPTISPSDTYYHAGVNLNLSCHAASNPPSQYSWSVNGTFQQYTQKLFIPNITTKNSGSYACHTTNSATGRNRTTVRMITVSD
The procedure:
(§1) For FACS experiments HeLa wild type cells were cultured in RPMI-1640, 10% FCS, while CEACAM-receptor transfected HeLa cells received in addition 0.5% Gentamycin (stock 10 mg/ml, Fa. PAA) and 200 μg/ml Hygromycin B (stock 50 mg/ml, Invitrogen). Cells were washed 3 times with PBS w/o Ca²⁺/Mg²⁺ and were detached from the culture plate non-enzymatically with EDTA dissociation buffer (Gibco). Cells were washed in cold FACS buffer (PBS w/o Ca²⁺/Mg²⁺ and heat-inactivated 3% FCS) and were counted using a countess machine (Invitrogen). 10⁵ cells per well were plated and incubated with the respective primary antibody (5 μg/ml) for 1 h at 4° C. on a plate shaker. […] After 2 times washing the cells were resuspended in 100 μl FACS buffer and were analysed on a FACS Canto II machine (Beckton Dickinson) or a FACS Array (Beckton Dickinson).
(§2) For EC₅₀ analysis, the primary antibodies were used at increasing concentrations in a range from 0.1 nM to 100 nM. Half maximal binding values (EC₅₀) were determined by plotting the median fluorescence intensity signal against the concentration (logarithmic scale). Curve fitting of data was performed using the Graph Pad prism analysis software.

The target of experiment [2] is T2, Macaca fascicularis (cynomolgus) CEACAM6, full-length, on transfected HeLa cells (Macaca fascicularis, GPI anchor at the C-terminus on the cell surface, not carried by the letters).
T2 construct: also called TPP-4189; HeLa Cynomolgus CEACAM6
T2 chain: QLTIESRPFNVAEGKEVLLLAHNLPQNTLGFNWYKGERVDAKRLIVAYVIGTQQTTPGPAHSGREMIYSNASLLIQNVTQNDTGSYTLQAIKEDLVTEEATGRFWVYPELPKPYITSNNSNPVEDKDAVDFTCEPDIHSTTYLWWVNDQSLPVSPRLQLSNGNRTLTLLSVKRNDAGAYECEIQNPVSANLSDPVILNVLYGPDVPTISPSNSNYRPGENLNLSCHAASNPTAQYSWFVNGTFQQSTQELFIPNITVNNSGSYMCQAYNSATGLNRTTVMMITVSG
The procedure:
as §1, §2

Experiment [3] concerns the target T3, human CEACAM1, full-length, on transfected HeLa cells (human, UniProt P13688 35-526).
T3 construct: also called TPP-4185; HeLa human CEACAM1
T3 sequence: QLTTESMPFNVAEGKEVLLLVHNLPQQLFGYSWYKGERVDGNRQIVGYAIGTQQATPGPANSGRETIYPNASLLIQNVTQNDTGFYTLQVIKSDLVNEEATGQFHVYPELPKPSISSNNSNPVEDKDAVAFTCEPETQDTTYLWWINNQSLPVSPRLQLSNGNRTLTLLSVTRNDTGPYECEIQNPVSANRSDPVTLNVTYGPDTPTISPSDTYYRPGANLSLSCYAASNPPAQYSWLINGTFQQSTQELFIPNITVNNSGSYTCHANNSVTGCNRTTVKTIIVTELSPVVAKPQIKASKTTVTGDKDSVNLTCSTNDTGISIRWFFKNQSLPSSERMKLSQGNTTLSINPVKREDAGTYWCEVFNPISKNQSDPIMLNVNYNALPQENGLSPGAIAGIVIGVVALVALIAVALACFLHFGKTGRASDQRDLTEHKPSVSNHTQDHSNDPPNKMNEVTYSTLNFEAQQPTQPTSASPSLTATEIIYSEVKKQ
The procedure: as §1, §2

Experiment [4] has as its target T4, human CEACAM3, full-length, on transfected HeLa cells (human, UniProt P40198 35-252).
T4 construct: also called TPP-4187; HeLa human CEACAM3
T4 sequence: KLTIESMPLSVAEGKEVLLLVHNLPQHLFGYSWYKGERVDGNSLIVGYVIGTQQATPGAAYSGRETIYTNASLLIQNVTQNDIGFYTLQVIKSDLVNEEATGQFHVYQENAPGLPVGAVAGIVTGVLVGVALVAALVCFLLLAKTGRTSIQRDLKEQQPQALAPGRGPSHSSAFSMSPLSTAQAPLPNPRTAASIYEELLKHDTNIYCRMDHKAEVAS
The procedure:
as §1, §2

Experiment [5] addresses T5, human CEACAM5, full-length, on transfected HeLa cells (human, UniProt P06731 35-685, GPI anchor at the C-terminus on the cell surface, not carried by the letters).
T5 construct: also called TPP-4188; HeLa human CEACAM5
T5 sequence: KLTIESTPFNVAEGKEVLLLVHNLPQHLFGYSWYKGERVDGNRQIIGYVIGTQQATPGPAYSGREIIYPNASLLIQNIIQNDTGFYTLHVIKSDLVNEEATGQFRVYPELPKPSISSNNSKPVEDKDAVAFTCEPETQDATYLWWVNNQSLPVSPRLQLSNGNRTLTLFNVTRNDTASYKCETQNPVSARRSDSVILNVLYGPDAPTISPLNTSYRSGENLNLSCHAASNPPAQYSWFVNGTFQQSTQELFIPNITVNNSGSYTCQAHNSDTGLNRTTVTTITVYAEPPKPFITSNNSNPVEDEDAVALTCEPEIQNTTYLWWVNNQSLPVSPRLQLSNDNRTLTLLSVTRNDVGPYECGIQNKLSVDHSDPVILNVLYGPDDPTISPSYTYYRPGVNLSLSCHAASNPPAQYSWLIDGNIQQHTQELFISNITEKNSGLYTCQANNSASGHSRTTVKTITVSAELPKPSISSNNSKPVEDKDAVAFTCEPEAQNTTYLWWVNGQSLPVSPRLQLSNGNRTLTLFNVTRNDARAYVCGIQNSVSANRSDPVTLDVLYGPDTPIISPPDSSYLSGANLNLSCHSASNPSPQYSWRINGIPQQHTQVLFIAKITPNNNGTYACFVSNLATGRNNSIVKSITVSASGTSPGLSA
The procedure: as §1, §2

The text below walks through data of patent US20200181261A1 (Bayer, published 2020).

Substitutions are numbered along the chain they refer to.

B1: TPP-3323 (antibody, human IgG2, kappa, V domains shown)
VH: QVTLKESGPGILQPSQTLSLTCSFSGFSLTTYGIGVGWIRQPSGKGLEWLAHIWWNDNKYYNTALKSRLTISKDTSNNQVFLKIASVDTADTATYYCARISLPYFDYWGQGTTLTVSS
VL: DIVMTQSQKFMSTSVGDRVSITCKASQNVGTAVAWYQQKPGQSPKLLIYSASNRYTGVPDRFTGSGSGTDFTLTISNMQSEDLADYFCQQYNNYPLTFGAGTKLELKR
notes: human IgG2 chimera; also called TPP-3187X1-hIgG2; hIgG2 chimera of TPP-3187
In the case of B1, the binding result in experiment [1], in experiment [3], in experiment [4] and in experiment [5] was “no binding (tested: 5 µg/ml)” throughout. A half-maximal effect in experiment [2] (EC50) was put at 0.8 nM. Besides, the FACS median fluorescence in experiment [2] was 100 to 1000 medianfluorescence.

B2: TPP-3308 (antibody, human IgG2, kappa, V domains shown)
VH: B1 VH with T30S, G46D
VL: B1 VL with N92S, N93S
notes: human IgG2 chimera; also called TPP-2971X1-hIgG2Kappa; hIgG2 chimera of TPP-2971
Regarding B2, the binding result in experiment [1], in experiment [3], in experiment [4] and in experiment [5] was “no binding (tested: 5 µg/ml)” each time. Also, the response in experiment [2] was half-maximal at 0.6 nM (EC50). The molecule also had an FACS median fluorescence in experiment [2] of 100 to 1000 medianfluorescence.

B3: TPP-3714 (antibody, human IgG2, kappa)
heavy: QVTLRESGPALVKPTQTLTLTCTFSGFSLSTYGIGVGWIRQPPGKALEWLAHIWWNDNKYYSTSLKTRLTISKDTSKNQVVLTMTNMDPVDTATYYCARISLPYFDYWGQGTLVTVSSASTKGPSVFPLAPCSRSTSESTAALGCLVKDYFPEPVTVSWNSGALTSGVHTFPAVLQSSGLYSLSSVVTVPSSNFGTQTYTCNVDHKPSNTKVDKTVERKCCVECPPCPAPPVAGPSVFLFPPKPKDTLMISRTPEVTCVVVDVSHEDPEVQFNWYVDGVEVHNAKTKPREEQFNSTFRVVSVLTVVHQDWLNGKEYKCKVSNKGLPAPIEKTISKTKGQPREPQVYTLPPSREEMTKNQVSLTCLVKGFYPSDIAVEWESNGQPENNYKTTPPMLDSDGSFFLYSKLTVDKSRWQQGNVFSCSVMHEALHNHYTQKSLSLSPG
light: DIQLTQSPSFLSASVGDRVTITCKASQNVGTAVAWYQQKPGKAPKLLIYSASNRYTGVPSRFSGSGSGTEFTLTISSLQPEDFATYYCQQYSSYPLTFGGGTKVEIKRTVAAPSVFIFPPSDEQLKSGTASVVCLLNNFYPREAKVQWKVDNALQSGNSQESVTEQDSKDSTYSLSSTLTLSKADYEKHKVYACEVTHQGLSSPVTKSFNRGEC
notes: humanized from TPP-2971, human IgG2; also called TPP-2971HU2-hIgG2Kappa
On to B3, for which the binding result in experiment [1], in experiment [3], in experiment [4] and in experiment [5] was “no binding (tested: 5 µg/ml)” each time. Also, the 50% effective concentration (EC50) (as a rule, the concentration at which the effect is half-maximal) in experiment [2] amounted to 1 nM.
